Values quoted from earlier work in paper PMC2930029.
pKd: −log10 of the molar value. Read-outs that look alike come from different tables or passages of the source.

Assays:
[1] = target: C3b C3b (Homo sapiens) (UniProt P01024)
[2] = target: C3b C3b (Homo sapiens) (UniProt P01024); assay: SPR

Chain of C3b C3b (Homo sapiens) (P01024 566-670): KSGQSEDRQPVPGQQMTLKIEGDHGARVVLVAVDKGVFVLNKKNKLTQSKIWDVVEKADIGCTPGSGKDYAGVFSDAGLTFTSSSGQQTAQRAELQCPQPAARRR
Chain of Efb (P68799 30-165): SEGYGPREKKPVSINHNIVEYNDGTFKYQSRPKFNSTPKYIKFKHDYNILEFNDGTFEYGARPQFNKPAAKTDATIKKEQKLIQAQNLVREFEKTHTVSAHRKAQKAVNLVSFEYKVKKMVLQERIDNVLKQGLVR
Chain of Factor H fH(1-4) (P08603 19-264): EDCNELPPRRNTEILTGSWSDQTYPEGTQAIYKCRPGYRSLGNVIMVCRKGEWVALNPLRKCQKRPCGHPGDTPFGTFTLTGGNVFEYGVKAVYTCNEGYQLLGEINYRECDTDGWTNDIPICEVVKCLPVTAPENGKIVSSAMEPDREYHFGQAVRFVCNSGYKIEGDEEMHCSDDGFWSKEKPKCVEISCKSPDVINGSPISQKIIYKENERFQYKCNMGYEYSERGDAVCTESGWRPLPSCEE
Chain of SCIN (A7X482 32-116): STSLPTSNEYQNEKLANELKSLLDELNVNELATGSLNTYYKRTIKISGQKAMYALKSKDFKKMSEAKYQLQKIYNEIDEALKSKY

Substance | pKd [1] | pKd [2]
Factor H fH(1-4) (from UniProt P08603) | 4.96 | 
Efb (from UniProt P68799) |  | 8.00
SCIN (from UniProt A7X482) |  | 6.74
